The text below walks through data of patent publication US20140294828A1 (COMPLIX, published 2014).

For the test, the target named is HIV-1 Env of the HXB2 strain (envelope glycoprotein complex gp120/gp41) (HIV-1 (HXB2 strain), UniProt P04578 33-856). The test can be described thus: cell-based or functional assay.

B1: single-chain Alphabody scAB_Env03_KC (designed binder)
chain: MGHHHHHHHHHHSSGHIEGRHMSIEEIQKPIATIQEAIAWIQKKIYMMTGGSGGGSGGGSGGGSGMSIEEIQKQIAAIQCQIAAIQKQIYAMTGGSGGGSGGGSGGGSGMSIEEIQKQIVAIMEQIVAIVKQISAMTP
modifications: Interchain disulfide between Cys80 of chain 1 and Cys80 of chain 2 (homodimer; paragraph 268, and FIG.11 prints 'scAB_Env03_KC (dimer)').
notes: also called Env03 Cys-mutant
On to B1, for which the “50% inhibitory concentration (IC50), 5-day MTT infection assay, HXB2 virus on MT4-X4 cells” value was 0.709 µM.
